What all share (assay type): biochemical
Data set [1] in a line: Carboxylate reductase activity assay, N7-acetyl-7-aminoheptanoate to N7-acetyl-7-aminoheptanal (NADPH consumption). As to conditions: 2 mM N7-acetyl-7-aminoheptanoate, enhanced by gene product of sfp, room temperature, 20 min, against empty vector control, FIG. 12. How it is done:
The activity of each of the N-terminal His-tagged carboxylate reductases of SEQ ID NOs: 3, 6, and 7 (see Examples 4, and FIG. 7) for converting N7-acetyl-7-aminoheptanoate to N7-acetyl-7-aminoheptanal was assayed in triplicate in a buffer composed of a final concentration of 50 mM HEPES buffer (pH=7.5), 2 mM N7-acetyl-7-aminoheptanoate, 10 mM MgCl2, 1 mM ATP, and 1 mM NADPH. The assays were initiated by adding purified carboxylate reductase and phosphopantetheine transferase or the empty vector control to the assay buffer containing the N7-acetyl-7-aminoheptanoate then incubated at room temperature for 20 min. The consumption of NADPH was monitored by absorbance at 340 nm.

The nature of data set [2]: Carboxylate reductase activity assay, pimelate to pimelate semialdehyde (NADPH consumption). The note with it: 2 mM pimelate, enhanced by gene product of sfp, room temperature, 20 min, against empty vector control, FIG. 10. How it is done:
A sequence encoding a HIS-tag was added to the genes from Segniliparus rugosus and Segniliparus rotundus that encode the carboxylate reductases of SEQ ID NOs: 4 and 7, respectively (see FIG. 7), such that N-terminal HIS tagged carboxylate reductases could be produced. Each of the modified genes was cloned into a pET Duet expression vector along with a sfp gene encoding a HIS-tagged phosphopantetheine transferase from Bacillus subtilis, both under the T7 promoter. Each expression vector was transformed into a BL21[DE3] E. coli host and the resulting recombinant E. coli strains were cultivated at 37° C. in a 250 mL shake flask culture containing 50 mL LB media and antibiotic selection pressure, with shaking at 230 rpm. Each culture was induced overnight at 37° C. using an auto-induction media.
The pellet from each induced shake flask culture was harvested via centrifugation. Each pellet was resuspended and lysed via sonication, and the cell debris was separated from the supernatant via centrifugation. […]
Enzyme activity assays (i.e., from pimelate to pimelate semialdehyde) were performed in triplicate in a buffer composed of a final concentration of 50 mM HEPES buffer (pH=7.5), 2 mM pimelate, 10 mM MgCl2, 1 mM ATP and 1 mM NADPH. […] The consumption of NADPH was monitored by absorbance at 340 nm.

Data set [3] in a line: Thioesterase enzyme activity assay, pimeloyl-CoA to pimelate (release of CoA, Ellman's reagent). The note with it: 667 μM pimeloyl-CoA, 0.8 μM enzyme, pH 7.4, 37° C., 20 min, relative to empty vector control, FIG. 8. How it is done: A sequence encoding an N-terminal His tag was added to the tesB gene from Escherichia coli that encodes a thioesterase (SEQ ID NO 1, see FIG. 7), such that an N-terminal HIS tagged thioesterase could be produced. The modified tesB gene was cloned into a pET15b expression vector under control of the T7 promoter. The expression vector was transformed into a BL21[DE3] E. coli host. The resulting recombinant E. coli strain was cultivated at 37° C. in a 500 mL shake flask culture containing 50 mL Luria Broth (LB) media and antibiotic selection pressure, with shaking at 230 rpm. The culture was induced overnight at 17° C. using 0.5 mM IPTG.
The pellet from the induced shake flask culture was harvested via centrifugation. The pellet was resuspended and lysed in Y-Per™ solution (ThermoScientific, Rockford, Ill.). The cell debris was separated from the supernatant via centrifugation. […]
The enzyme activity assay was performed in triplicate in a buffer composed of 50 mM phosphate buffer (pH=7.4), 0.1 mM Ellman's reagent, and 667 μM of pimeloyl-CoA (as substrate). […] The release of Coenzyme A was monitored by absorbance at 412 nm. The absorbance associated with the substrate only control, which contained boiled enzyme, was subtracted from the active enzyme assay absorbance and compared to the empty vector control.
On the technique in general: DTNB colorimetry detects thiols as they appear.

4 molecules from US9580731B2, “Methods of producing 7-carbon chemicals via c1 carbon chain elongation associated with coenzyme B synthesis” (INVISTA North America S.á r.l., priority 2012, dated 2017) can be followed below.

B1: SEQ ID NO 6: Mycobacterium massiliense carboxylate reductase, Genbank Accession No. EIV11143.1 (protein)
chain: MTNETNPQQEQLSRRIESLRESDPQFRAAQPDPAVAEQVLRPGLHLSEAIAALMTGYAERPALGERARELVIDQDGRTTLRLLPRFDTTTYGELWSRTTSVAAAWHHDATHPVKAGDLVATLGFTSIDYTVLDLAIMILGGVAVPLQTSAPASQWTTILAEAEPNTLAVSIELIGAAMESVRATPSIKQVVVFDYTPEVDDQREAFEAASTQLAGTGIALETLDAVIARGAALPAAPLYAPSAGDDPLALLIYTSGSTGAPKGAMHSENIVRRWWIREDVMAGTENLPMIGLNFMPMSHIMGRGTLTSTLSTGGTGYFAASSDMSTLFEDMELIRPTALALVPRVCDMVFQRFQTEVDRRLASGDTASAEAVAAEVKADIRDNLFGGRVSAVMVGSAPLSEELGEFIESCFELNLTDGYGSTEAGMVFRDGIVQRPPVIDYKLVDVPELGYFSTDKPHPRGELLLKTDGMFLGYYKRPEVTASVFDADGFYMTGDIVAELAHDNIEIIDRRNNVLKLSQGEFVAVATLEAEYANSPVVHQIYVYGSSERSYLLAVVVPTPEAVAAAKGDAAALKTTIADSLQDIAKEIQLQSYEVPRDFIIEPQPFTQGNGLLTGIAKLARPNLKAHYGPRLEQMYAEIAEQQAAELRALHGVDPDKPALETVLKAAQALLGVSSAELAADAHFTDLGGDSLSALSFSDLLRDIFAVEVPVGVIVSAANDLGGVAKFVDEQRHSGGTRPTAETVHGAGHTEIRAADLTLDKFIDEATLHAAPSLPKAAGIPHTVLLTGSNGYLGHYLALEWLERLDKTDGKLIVIVRGKNAEAAYGRLEEAFDTGDTELLAHFRSLADKHLEVLAGDIGDPNLGLDADTWQRLADTVDVIVHPAALVNHVLPYNQLFGPNVVGTAEIIKLAITTKIKPVTYLSTVAVAAYVDPTTFDEESDIRLISAVRPIDDGYANGYGNAKWAGEVLLREAHDLCGLPVAVFRSDMILAHSRYTGQLNVPDQFTRLILSLIATGIAPGSFYQAQTTGERPLAHYDGLPGDFTAEAITTLGTQVPEGSEGFVTYDCVNPHADGISLDNFVDWLIEAGYPIARIDNYTEWFTRFDTAIRGLSEKQKQHSLLPLLHAFEQPSAAENHGVVPAKRFQHAVQAAGIGPVGQDGTTDIPHLSRRLIVKYAKDLEQLGLL
modifications: Mycobacterium massiliense
On to B1, for which, in data set [1], the “carboxylate reductase activity for converting N7-acetyl-7-aminoheptanoate to N7-acetyl-7-aminoheptanal (NADPH consumption, absorbance at 340 nm)” value is given as “accepted N7-acetyl-7-aminoheptanoate as substrate”.

B2: SEQ ID NO 3: Mycobacterium smegmatis carboxylate reductase, Genbank Accession No. ABK71854.1 (protein, listed as Mycobacterium smegmatis)
chain: MTSDVHDATDGVTETALDDEQSTRRIAELYATDPEFAAAAPLPAVVDAAHKPGLRLAEILQTLFTGYGDRPALGYRARELATDEGGRTVTRLLPRFDTLTYAQVWSRVQAVAAALRHNFAQPIYPGDAVATIGFASPDYLTLDLVCAYLGLVSVPLQHNAPVSRLAPILAEVEPRILTVSAEYLDLAVESVRDVNSVSQLVVFDHHPEVDDHRDALARAREQLAGKGIAVTTLDAIADEGAGLPAEPIYTADHDQRLAMILYTSGSTGAPKGAMYTEAMVARLWTMSFITGDPTPVINVNFMPLNHLGGRIPISTAVQNGGTSYFVPESDMSTLFEDLALVRPTELGLVPRVADMLYQHHLATVDRLVTQGADELTAEKQAGAELREQVLGGRVITGFVSTAPLAAEMRAFLDITLGAHIVDGYGLTETGAVTRDGVIVRPPVIDYKLIDVPELGYFSTDKPYPRGELLVRSQTLTPGYYKRPEVTASVFDRDGYYHTGDVMAETAPDHLVYVDRRNNVLKLAQGEFVAVANLEAVFSGAALVRQIFVYGNSERSFLLAVVVPTPEALEQYDPAALKAALADSLQRTARDAELQSYEVPADFIVETEPFSAANGLLSGVGKLLRPNLKDRYGQRLEQMYADIAATQANQLRELRRAAATQPVIDTLTQAAATILGTGSEVASDAHFTDLGGDSLSALTLSNLLSDFFGFEVPVGTIVNPATNLAQLAQHIEAQRTAGDRRPSFTTVHGADATEIRASELTLDKFIDAETLRAAPGLPKVTTEPRTVLLSGANGWLGRFLTLQWLERLAPVGGTLITIVRGRDDAAARARLTQAYDTDPELSRRFAELADRHLRVVAGDIGDPNLGLTPEIWHRLAAEVDLVVHPAALVNHVLPYRQLFGPNVVGTAEVIKLALTERIKPVTYLSTVSVAMGIPDFEEDGDIRTVSPVRPLDGGYANGYGNSKWAGEVLLREAHDLCGLPVATFRSDMILAHPRYRGQVNVPDMFTRLLLSLLITGVAPRSFYIGDGERPRAHYPGLTVDFVAEAVTTLGAQQREGYVSYDVMNPHDDGISLDVFVDWLIRAGHPIDRVDDYDDWVRRFETALTALPEKRRAQTVLPLLHAFRAPQAPLRGAPEPTEVFHAAVRTAKVGPGDIPHLDEALIDKYIRDLREFGLI
As to B2, the “carboxylate reductase activity for converting N7-acetyl-7-aminoheptanoate to N7-acetyl-7-aminoheptanal (NADPH consumption, absorbance at 340 nm)” value in data set [1] is “accepted N7-acetyl-7-aminoheptanoate as substrate”.

B3: SEQ ID NO 4: Segniliparus rugosus carboxylate reductase, Genbank Accession No. EFV11917.1 (protein, listed as Segniliparus rugosus)
chain: MGDGEERAKRFFQRIGELSATDPQFAAAAPDPAVVEAVSDPSLSFTRYLDTLMRGYAERPALAHRVGAGYETISYGELWARVGAIAAAWQADGLAPGDFVATVGFTSPDYVAVDLAAARSGLVSVPLQAGASLAQLVGILEETEPKVLAASASSLEGAVACALAAPSVQRLVVFDLRGPDASESAADERRGALADAEEQLARAGRAVVVETLADLAARGEALPEAPLFEPAEGEDPLALLIYTSGSTGAPKGAMYSQRLVSQLWGRTPVVPGMPNISLHYMPLSHSYGRAVLAGALSAGGTAHFTANSDLSTLFEDIALARPTFLALVPRVCEMLFQESQRGQDVAELRERVLGGRLLVAVCGSAPLSPEMRAFMEEVLGFPLLDGYGSTEALGVMRNGIIQRPPVIDYKLVDVPELGYRTTDKPYPRGELCIRSTSLISGYYKRPEITAEVFDAQGYYKTGDVMAEIAPDHLVYVDRSKNVLKLSQGEFVAVAKLEAAYGTSPYVKQIFVYGNSERSFLLAVVVPNAEVLGARDQEEAKPLIAASLQKIAKEAGLQSYEVPRDFLIETEPFTTQNGLLSEVGKLLRPKLKARYGEALEARYDEIAHGQADELRALRDGAGQRPVVETVVRAAVAISGSEGAEVGPEANFADLGGDSLSALSLANLLHDVFEVEVPVRIIIGPTASLAGIAKHIEAERAGASAPTAASVHGAGATRIRASELTLEKFLPEDLLAAAKGLPAADQVRTVLLTGANGWLGRFLALEQLERLARSGQDGGKLICLVRGKDAAAARRRIEETLGTDPALAARFAELAEGRLEVVPGDVGEPKFGLDDAAWDRLAEEVDVIVHPAALVNHVLPYHQLFGPNVVGTAEIIRLAITAKRKPVTYLSTVAVAAGVEPSSFEEDGDIRAVVPERPLGDGYANGYGNSKWAGEVLLREAHELVGLPVAVFRSDMILAHTRYTGQLNVPDQFTRLVLSLLATGIAPKSFYQQGAAGERQRAHYDGIPVDFTAEAITTLGAEPSWFDGGAGFRSFDVFNPHHDGVGLDEFVDWLIEAGHPISRIDDHKEWFARFETAVRGLPEAQRQHSLLPLLRAYSFPHPPVDGSVYPTGKFQGAVKAAQVGSDHDVPHLGKALIVKYADDLKALGLL
Regarding B3, the “carboxylate reductase activity for converting pimelate to pimelate semialdehyde (NADPH consumption, absorbance at 340 nm)” value in data set [2] is recorded as “accepted pimelate as substrate”.

B4: gene product of tesB: Escherichia coli thioesterase encoded by tesB, GenBank Accession No. AAA24665.1 (protein, listed as Escherichia coli)
chain: MSQALKNLLTLLNLEKIEEGLFRGQSEDLGLRQVFGGQVVGQALYAAKETVPEERLVHSFHSYFLRPGDSKKPIIYDVETLRDGNSFSARRVAAIQNGKPIFYMTASFQAPEAGFEHQKTMPSAPAPDGLPSETQIAQSLAHLLPPVLKDKFICDRPLEVRPVEFHNPLKGHVAEPHRQVWIRANGSVPDDLRVHQYLLGYASDLNFLPVALQPHGIGFLEPGIQIATIDHSMWFHRPFNLNEWLLYSVESTSASSARGFVRGEFYTQDGVLVASTVQEGVMRNHN
Take B4: the “thioesterase activity for converting pimeloyl-CoA to pimelate (released CoA, absorbance at 412 nm)” value in data set [3] was “accepted pimeloyl-CoA as substrate”.
